Reference: the supplement of paper PMC9170038

Tests used:
[1] = tested on: MS2 coat protein; assay: apparent KD of MS2 coat protein, switch ON state; designed switch direction (-1 OFF switch, 1 ON switch): -1; higher = weaker reporter binding; details: FMN input: 0 or 200 uM; Eterna round: R93 (includes R88 designs)
Summary of the method: (§1)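 Designed RNA switches were transcribed on-chip from Illumina sequencing clusters. They were then titrated with SNAP-549-labelled MS2 coat protein (twofold steps, 0.7 or 1.5 nM to 3 µM; 0.8–1.5 h to 10–20 min per step) in 100 mM Tris-HCl pH 7.5, 80 mM KCl, 4 mM MgCl2, without or with constant ligand. Apparent KD is the per-design median of normalised cluster binding-curve fits.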

[2] = tested on: MS2 coat protein; assay: apparent KD of MS2 coat protein, switch OFF state (with FMN for OFF switches, without FMN for ON switches); designed switch direction (-1 OFF switch, 1 ON switch): -1; higher = weaker reporter binding; details: FMN input: 0 or 200 uM; Eterna round: R93 (includes R88 designs)
Summary of the method: as §1

| Sequence | apparent KD of MS2 coat protein [1] [nM] | apparent KD of MS2 coat protein [2] [nM] |
| --- | --- | --- |
| GAAUACCUAGGAUAUACAUGAGGAUCACCCAUGUCAGUAGACUGGGAAAAGUCUCUCAGUAGAAGGAGGACCAG [Anaran] | 192 | 233 |
| GAAUGUCUAGGAUAUACAUGAGGAUCACCCAUGUGUAAAAAUAAAUACACAAAAGAAAGUAGAAGGAGACAAAG [Mat - Exclusion 3 - Mayanna mod - D122] | 28.5 | 46.5 |
| GAGGCUGAAGGAUAUACAAGGGCCUCACCGCCAAAACGGAAACAUGAGGAUCACCCAUGUAGAAGGUCAAUAAA [Reisvexe] | 57.1 | 77 |
| GAUAGUGAAGGAUAUACUGGAGGAGUGCGAUAGAAGAAAGAACAUGAGGAUCACCCAUGUAGAAGGUCAGAAGU [JR_Exc002_Sub1225] | 32.3 | 27.2 |
| GCAAAGUGAGGAUAUACGCGAACAAUAAAAAUAAAGAAAGCGUAGAAGGCACAUGAGGAUCACCCAUGUCCAGC [Mat - Exaclusion 4 - Eli mod - D78] | 23.5 | 25.9 |
| GCUGGCCAAGGAUAUACAUGAGGAUCACCCAUGUGAGAGAAAAAAGUGAGAAAGAAAAGUAGAAGGUGGGUAGG [salish99-ex3-111] | 59 | 56.9 |
| GCUGUCCAAGGAUAUACAUGAGGAUCACCCAUGUGAGAGAAAAAAGUGAGAAAGAAAAGUAGAAGGUGGGUAGG [salish99-ex3-103] | 31.6 | 56.6 |
| GGAAAACAUGAGGAUCACCCAUGUAAGGAUAUGCUAAAAAAAAAAAAAAACCCACCAGGCAGAAGGUACUAAAG [Janelle Amethyst 18 Mod 2 - Jieux - Exclusion 1] | 20.4 | 26.8 |
| GGUUGAAAAGGAUAUACAUGAGGAUCACCCAUGUGAGAGAAAAAAGUGAGAAAGAAAAGUAGAAGGUUUUGACG [salish99-ex3-61] | 22.8 | 44 |
| GGUUGGCGAGGAUAUACAUGAGGAUCACCCAUGUGAGAGAAAAAAGUGAGAAACAAAAGUAGAAGGCGCUGACG [salish99-ex3-26] | 79.8 | 657 |
| GGUUGGCGAGGAUAUACAUGAGGAUCACCCAUGUGAGAGAAAAAAGUGAGAAAGCAAAGUAGAAGGCGCUGACG [salish99-ex3-27] | 51.4 | 321 |
| GGUUGGCGAGGAUAUACAUGAGGAUCACCCAUGUGAGAGAAAUAAGUGAGAAAGAAAAGUAGAAGGCGCUGACG [salish99-ex3-43] | 87.7 | 1700 |
| GGUUGGCGAGGAUAUACAUGAGGAUCACCCAUGUGAGAGUAAAAAGUGAGAAAGAAAAGUAGAAGGCGCUGACG [salish99-ex3-46] | 27.1 | 85.1 |
| GGUUGGCGAGGAUAUACAUGAGGAUCACCCAUGUGAGUGAAAAAAGUGAGAAAGAAAAGUAGAAGGCGCUGACG [salish99-ex3-47] | 161 | 489 |
| GUAAACCUAGGAUAUACAUGAGGAUCACCCAUGUAAAGUUUCGUAAAAAGAAAAUCGAGUAGAAGGAGGUAGAU [JR_Exc003_Sub1222] | 22.5 | 26.6 |
| GUGGAACAUGAGGAUCACCCAUGUGAGGAUAUAGGUUUUUGGGAAAAACUAGGAGAAACUAGAAGGCGCAAGAA [Exclusion 1.1] | 26.2 | 22 |
| UAAAAACAUGAGGAUCACCCAUGUCAGGAUAUGUGCUCAGUGAAAAACUGAGUAACAAGCAGAAGGGACAAUAA [JR_Exc001_Sub202] | 23.6 | 31.4 |
| UAAACCCUAGGAUAUACAUGAGGAUCACCCAUGUUUGUCGAAGAACGAACAGUCCUCAGUAGAAGGAGGACGAA [Geriza] | 27.4 | 24.3 |
| UAUACGUGAGGAUAUGCGAAUAACACGUUAGACAAAUAGACGCAGAAGGCACAUGAGGAUCACCCAUGUGAACC [JR_Exc004_Sub316] | 18.1 | 17 |
| UCCGGACAUGAGGAUCACCCAUGUGAGGAUAUAUAAAGUGGGACUGGAAACAGUCCCAAUAGAAGGCACAUGAA [Celaar] | 21.2 | 19.6 |
| UCCUGACAUGAGGAUCACCCAUGUCAGGAUAUAGUAUGAAAAAAAAAAAAAAAAAAUACUAGAAGGGACAAGGG [Design 13: Super Stable Short Helix 4] | 18.5 | 26.8 |
| UCUUGACAUGAGGAUCACCCAUGUCAGGAUAUAGUAGGACAAAUAAAUAAAAGUUCUACUAGAAGGGAUAUGGA [Design 18: G-U+] | 14.3 | 12.7 |
